Measured values reported in patent US20050053993A1, “Uses of an endothelial cell receptor” (priority 2002, published 2005).

Tests used:
MDA 445 = test: Tumor cell proliferation, MDA 445; assay type: cell-based; conditions: MDA 445, 72 hours
Method: (§1) Cell Proliferation Assay. The effect of rK5 and rK5 peptides on endothelial cells were assessed using a proliferation assay with 1% BSA and 3 ng/ml bFGF in serum-free media. Relative cell numbers in each well of a 96 well microplate after incubation for 72 hours in the absence or presence of inhibitors were determined by using the AQueous cell proliferation assay (Promega, San Luis Obispo, Calif.). For all other cell lines tested for proliferation, minimal growth media was used (Cao, Y., Ji, R., Davidson, D., Schaller, J., Marti, D., Sohndel, S., McCance, S., O'Reilly, M., Llinas, M., and Folkman, J. Kringle domains of human angiostatin. Characterization of the anti-proliferative activity on endothelial cells. (1996) J. Biol. Chem. 271, 29461-29467). Results are presented as the percent inhibition of control cell (bFGF-induced) proliferation.

Lewis Lung Carcinoma = test: Tumor cell proliferation, Lewis Lung Carcinoma; assay type: cell-based; conditions: 72 hours
Method: as §1

[1] = biological target: T1, recombinant GRP78 ATPase domain (Homo sapiens, UniProt P11021); test: NMR binding to recombinant GRP78 ATPase domain
T1 construct: NMR studies with a recombinant GRP78 ATPase domain

[2] = tested on: endothelial cell migration; test: Endothelial cell migration induced by various angiogenesis inducers (FIG. 9A); assay type: cell-based, human; conditions: aFGF, bFGF, IL-8, PDGF, TGF-β and VEGF; rK5 400 pM (100 pM for VEGF, PDGF)
Method: FIG. 9A is a graph showing inhibition by rK5 of endothelial cell migration induced by a variety of angiogenesis inducers including aFGF, bFGF, IL-8, PDGF, TGF-β, VEGF, HGF and […] at concentrations of 50 ng/mL, 15 ng/mL, 40 ng/mL, 1 pg/mL, 100 pg/mL 40 ng/mL and 250 ng/mL respectively. The concentration of rK5 used was 400 pM except for VEGF (rK5=100 pM), PDGF (rK5=100 pM) and HGF (rK5=10 pM). Membranes were covered, fixed and stained and the number of cells that had migrated to the upper chamber per 10 high power field counted. Background migration to DME+0.1% BSA was subtracted and the data reported as the number of cells migrated per 10 high power fields (100×). […]
Endothelial cell migration assays: The effect of rK5 on endothelial cell migration was determined by two different methods. […] After 4 h, migrated cells were measured by fluorescence (Frevert C W, Wong V A, Goodman R B, Goodwin R, Martin T R. Rapid fluorescence-based measurement of neutrophil migration in vitro. J Immunol Methods. 1998 Apr. 1;213(1):41-52). […] Growth factors were used, where indicated, at concentrations determined in preliminary experiments to give equivalent migration responses of about 100 cells migrated/high powered field (400×). […] Membranes were recovered, fixed and stained and the number of cells that had migrated to the upper chamber per 10 high power fields counted. […]

D54 = test: Tumor cell proliferation, D54; assay type: cell-based, human; conditions: D54, 72 hours
Method: as §1

[3] = biological target: T2, recombinant human GRP78 (rGRP78) (Homo sapiens, UniProt P11021); test: Equilibrium dialysis of rGRP78 and 3HK5; assay type: binding; conditions: competition dialysis, 2 nM GRP78 and 2 nM 3HK5; mutant up to 25-fold excess of GRP78
T2 construct: host or cells: yeast
Method: FIG. 14A is a graph showing equilibrium dialysis of recombinant GRP78 (rGRP78) and ^3HK5. ^3HK5 was added to one side of an equilibrium chamber at concentrations from 0.1 to 3 nM. 2 nM GRP78 was added to the other side of the chamber with a […] mwco filter between. ^3HK5 was allowed to equilibrate to both side of the chamber for 72 hours at room temperature. The amount of ^3HK5 on the GRP78 side of the chamber was compared to chamber with ^3HK5 alone to obtain the bound verses free rK5 distribution.
FIG. 14B is a graph showing competition binding dialysis rGRP78 and ^3HK5. Experiments were performed with 2 nM GRP78 and 2 nM ^3HK5 using rK5(K82A) mutant and unlabeled rK5 at various concentrations from 0.5 to 50 nM. The amount of ^3HK5 on both sides of the chamber was measured after 72 hours and compared to the control.
Binding of rK5 to rGRP78 was measured using equilibrium dialysis (Kariv I, Cao H, Oldenburg K R. Development of a high throughput equilibrium dialysis method. J Pharm Sci. 2001 May; 90(5):580-87). In the top well of a 96 well equilibrium dialyzer (molecular weight cut off 50K Daltons, Harvard Apparatus, Holliston, M A) 150 μl of 10 nM rGRP78 was added. In the reciprocal (bottom) chamber, 150 μl of increasing concentrations from 0.1 to 50 nM ^3HK5 was added. The chambers were shaken at room temperature for 72 hours. […]

B16F10 = test: Tumor cell proliferation, B16F10; assay type: cell-based; conditions: B16F10, 72 hours
Method: as §1

PC3 = test: Tumor cell proliferation, PC3; assay type: cell-based; conditions: PC3, 72 hours
Method: as §1

T1 sequence (P11021 19-408): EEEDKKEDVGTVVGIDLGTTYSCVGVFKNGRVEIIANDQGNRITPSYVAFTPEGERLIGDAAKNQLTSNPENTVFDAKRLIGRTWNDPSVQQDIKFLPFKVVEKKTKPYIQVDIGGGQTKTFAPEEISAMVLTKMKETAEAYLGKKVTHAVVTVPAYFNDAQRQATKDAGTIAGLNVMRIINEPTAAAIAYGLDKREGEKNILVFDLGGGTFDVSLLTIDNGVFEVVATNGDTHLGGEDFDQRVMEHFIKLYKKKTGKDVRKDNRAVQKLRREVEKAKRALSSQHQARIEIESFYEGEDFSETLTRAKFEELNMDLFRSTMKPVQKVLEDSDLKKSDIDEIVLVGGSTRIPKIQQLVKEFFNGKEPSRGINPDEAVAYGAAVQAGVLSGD
T2 sequence (P11021 19-654): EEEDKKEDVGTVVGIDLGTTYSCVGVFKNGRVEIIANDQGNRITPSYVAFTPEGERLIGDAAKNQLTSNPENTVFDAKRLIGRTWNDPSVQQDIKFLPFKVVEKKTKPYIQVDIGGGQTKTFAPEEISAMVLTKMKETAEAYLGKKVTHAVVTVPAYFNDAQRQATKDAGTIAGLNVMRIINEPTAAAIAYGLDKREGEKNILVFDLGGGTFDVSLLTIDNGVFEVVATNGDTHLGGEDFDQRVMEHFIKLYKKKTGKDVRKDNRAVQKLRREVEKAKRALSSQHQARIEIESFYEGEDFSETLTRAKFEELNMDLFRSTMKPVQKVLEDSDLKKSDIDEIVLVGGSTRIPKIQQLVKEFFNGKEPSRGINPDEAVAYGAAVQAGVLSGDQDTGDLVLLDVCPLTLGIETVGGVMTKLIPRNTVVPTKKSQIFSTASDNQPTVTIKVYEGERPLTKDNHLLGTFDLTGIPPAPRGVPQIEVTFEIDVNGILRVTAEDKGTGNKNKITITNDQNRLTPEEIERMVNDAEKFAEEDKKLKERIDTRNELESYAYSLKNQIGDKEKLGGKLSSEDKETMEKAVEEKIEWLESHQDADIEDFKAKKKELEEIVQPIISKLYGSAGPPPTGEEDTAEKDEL

- IC50 values for cell proliferation (MDA 445): >100 µg/mL
- IC50 values for cell proliferation (Lewis Lung Carcinoma): >100 µg/mL
- binding with the ATPase domain of GRP78 (NMR) [1]: direct binding
- IC50 values for cell proliferation (D54): >100 µg/mL
- blocking of 3HK5 binding to rGRP78 [3]: blocked
- IC50 values for cell proliferation (B16F10): >100 µg/mL
- IC50 values for cell proliferation (PC3): >100 µg/mL
B1: rK5: recombinant kringle 5 fragment of human plasminogen (residues 450-543), expressed in E. coli or yeast (protein)
chain: LLPDVETPSEEDCMFGNGKGYRGKRATTVTGTPCQDWAAQEPHRHSIFTPETNPRAGLEKNYCRNPDGDVGGPWCYTTNPRKLYDYCDVPQCAA
- inhibition of endothelial cell migration induced by inducers of angiogenesis [2]: inhibited
